Reference: the supplement of paper PMC10201428
± gives the standard deviation of the averaged measurements.

system: VchCAST RNA-guided transposition machinery (E. coli BL21(DE3) host, lacZ target); assay: relative integration efficiency (T-RL orientation) vs wild-type transposon end (log2 (normalized fold change)); transposon end mutated: right end (5 bp flank + 75 bp right end); higher = more efficient transposition
Summary of the method: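 In E. coli BL21(DE3), a T7-driven effector plasmid was paired with a pUC57 mini-transposon donor containing 1549 left-end or 1849 right-end barcoded transposon variants. Cells grew on plates with 0.1 mM IPTG at 37°C for 18 h. Relative integration efficiency was derived from Illumina reads of genomic integration junctions against input plasmids, as a log-transformed output/input barcode fold change normalised to reference barcodes.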

| Sequence | relative integration efficiency (log2) |
| --- | --- |
| ACATTTCTCGATACAACCATAAAATGATAATTACACCCATAAATTGATAATTATCACACCCAATTTAACTATAACGCTCTGATCATAGTCAGACCAACATTGCTACGACCCGTATTCGCACCGACAC | -1.57 ± 0.34 |
| ACATTTGTTGATACAACCATAAATAGATAATTACACCCATAAATTGATAATTATCACACCCATAAATTGATATTGCCTCTGATCATAGTCAGACCAACATTGCTACGACCCGTATTCGCACCGACAC | -0.642 ± 0.046 |
| ACATTTGTTGATACAACCATAAAATGATCATTACCCCCATAAATTGATAATTATCCCACCCAATTTAACTATAACGCTCTGATCATAGTCAGACCAACATTGCTACGACCCGTATTCGCACCGACAC | -2.11 ± 0.51 |
| ACATTTGTTGATACAACCATAAAATGATCATTACCCCCATCAATTGATAATTATCCCACCCAATTTAACTATAACGCTCTGATCATAGTCAGACCAACATTGCTACGACCCGTATTCGCACCGACAC | -3.71 ± 0.29 |
| ACATTTGTTGATACAACCATAAAATGATAATTACACCCATACCTTGATAATTATCACACCCATAAATTGATATTGCCTCTGATCATAGTCAGACCAACATTGCTACGACCCGTATTCGCACCGACAC | -0.707 ± 0.089 |
| ACATTTGTTGATACAACCATAAAATGATATATACACCCATAAATTGATAATTATCACACCCATAAATTGATATTGCCTCTGATCATAGTCAGACCAACATTGCTACGACCCGTATTCGCACCGACAC | -0.131 ± 0.097 |
| ACATTTGTTGATACAACCATAAAATGATAATTAGACCCCATAATTGATAATTATCACACCCATAAATTGATATTGCCTCTGATCATAGTCAGACCAACATTGCTACGACCCGTATTCGCACCGACAC | -3.4826 ± 0.0031 |
| ACATTTGTTGATACAACCATAAAATGATAATTACACCCATAAATTGATAATTATCACTGCCATAAATTGATATTGCCTCTGATCATAGTCAGACCAACATTGCTACGACCCGTATTCGCACCGACAC | -0.228 ± 0.042 |
| ACATTTGTTGATACAACCATTAAATGATAATTCCACCAATAAATTGATAATTATCACACCCAATTTAACTATAACGCTCTGATCATAGTCAGACCAACATTGCTACGACCCGTATTCGCACCGACAC | -1.51 ± 0.17 |
| ACATTTGTTGATACAACCATAAAGTGATATTTACAACCATATATTGATATCTCTCACACCCATAAATTGATAATTACTCTGATCATAGTCAGACCAACATTGCTACGACCCGTATTCGCACCGACAC | 0.065 ± 0.054 |
| ACATTTGCTGATACTACCATTTAATGATAATAACACCCCTAAAATGATAATTATCACACCCAATTTAACTATAACGCTCTGATCATAGTCAGACCAACATTGCTACGACCCGTATTCGCACCGACAC | -4.9716 ± 0.0047 |
| ACATTTGTGGATCCAACCATAAAATGATAATTACACCCATAAATGGATCATTATCACACCCAATTTAACTATAACGCTCTGATCATAGTCAGACCAACATTGCTACGACCCGTATTCGCACCGACAC | -1.79 ± 0.39 |
| ACATTTGTTGATACAACCATAAAATGATAATTACAGGGTTAAATTGATAATTATCACACCCATAAATTGATATTGCCTCTGATCATAGTCAGACCAACATTGCTACGACCCGTATTCGCACCGACAC | -1.5 ± 0.12 |
| ACATTAGTTGATACAACCATAAAATGATAATTACACCCATAAATGGATCATTATCACACCCAATTTAACTATAACGCTCTGATCATAGTCAGACCAACATTGCTACGACCCGTATTCGCACCGACAC | -6.02 ± 0.2 |
| ACATTTGTTGATACAACCATATATTGATATCTCCAACCATAAGTTGATATTTTTCACAACCATAAGTTGATATTTTCTCTGATCATAGTCAGACCAACATTGCTACGACCCGTATTCGCACCGACAC | -0.0557 ± 0.027 |
| ACATTTGTTGATACAACCATAAAAGGATAATTCACCCATAAATTGATAATTATCACACCCACATTTAACTATAACGCTCTGATCATAGTCAGACCAACATTGCTACGACCCGTATTCGCACCGACAC | -2.38 ± 0.38 |

| Sequence | relative integration efficiency (log2) |
| --- | --- |
| ACATTTGTTGATACAACCATAAAATGATAATTACACCCATAAATTGATAATTATCACACGGATAAATTGATATTGCCTCTGATCATAGTCAGACCAACATTGCTACGACCCGTATTCGCACCGACAC | -0.238 ± 0.062 |
| ACATTTGTTGATACAACCATATATTGATATCTCCAACCATATATTGATATCTCTCACACCCATAAATTGATATTGCCTCTGATCATAGTCAGACCAACATTGCTACGACCCGTATTCGCACCGACAC | -0.682 ± 0.15 |
| ACATTTGTCGATACAACCATAAAACGATAATTACACCCATAAATTGATAATTATCACACCCAATTTAACTATAACGCTCTGATCATAGTCAGACCAACATTGCTACGACCCGTATTCGCACCGACAC | -1.38 ± 0.25 |
| ACATTTGTTGATACAACCATAAAATGATAATTACACCCATAATTTGATAATTACCACTCCCAATTTAACTATAACGCTCTGATCATAGTCAGACCAACATTGCTACGACCCGTATTCGCACCGACAC | -1.09 ± 0.25 |
| ACATTTGTTGATACAACCATAAAATGATAATTACACCCATAAATTGATAATTATCACACCCATAAATTGATATTTAAGCTGATCATAGTCAGACCAACATTGCTACGACCCGTATTCGCACCGACAC | -0.000531 ± 0.0027 |
| ACATTTGTTGATAGAACCATTTAATGATAATAACACCCATAAAATGATAATTATCACACCCAATTTAACTATAACGCTCTGATCATAGTCAGACCAACATTGCTACGACCCGTATTCGCACCGACAC | -2.12 ± 0.42 |
| ACATTTGTTGATACACCCATAAATTGATAATTACAACCATATATTGATATCTCTCACAACCATAAAATGATAATTACTCTGATCATAGTCAGACCAACATTGCTACGACCCGTATTCGCACCGACAC | -0.747 ± 0.26 |
| ACATTTGTTGATACAACCATAAAATGATAATTACAACCATAAAATGATAATTATCACAACCATATATTGATATCTCCTCTGATCATAGTCAGACCAACATTGCTACGACCCGTATTCGCACCGACAC | -0.16 ± 0.32 |
| ACATTTGTTGATACAACCATCAAATGATAATTACACCCCTAAATTGATAATTATCACACCCAATTTAACTATAACGCTCTGATCATAGTCAGACCAACATTGCTACGACCCGTATTCGCACCGACAC | -3.41 ± 0.3 |
| ACATTTGTTGATACAACCATAAAATGATAATTACACCACGCAATTGATAATTATCACACCCATAAATTGATATTGCCTCTGATCATAGTCAGACCAACATTGCTACGACCCGTATTCGCACCGACAC | -3.04 ± 0.044 |
| ACATTTGTTGATACAACCATCAAATGGTAATTACACCCCTAAATTGATAATTATCACACCCAATTTAACTATAACGCTCTGATCATAGTCAGACCAACATTGCTACGACCCGTATTCGCACCGACAC | -4.79 ± 0.36 |
| ACATTTGTTGATACCACCATCAAATGATAATTCCACCCATACATTGATAATTATCACACCCAATTTAACTATAACGCTCTGATCATAGTCAGACCAACATTGCTACGACCCGTATTCGCACCGACAC | -4.883 ± 0.0066 |
| ACATTTGTTGATAACCAACGCCCCGTCGCCGGCACAAACGCCCGGTCGCCGGCTCAACAAACGCCCGGTCGCGGTACTCTGATCATAGTCAGACCAACATTGCTACGACCCGTATTCGCACCGACAC | -8.29 ± 1.1 |
| ACATTTGTTGATACAACCCTAAAATGATAATTACACCCATAAATGGATAATTATCACACCCAATTTAACTATAACGCTCTGATCATAGTCAGACCAACATTGCTACGACCCGTATTCGCACCGACAC | -3.06 ± 0.29 |
| ACATTTGTCGATCCAACCATAAAATGATAATTACACCCATAAATTCATAATTATCACACCCAATTTAACTATAACGCTCTGATCATAGTCAGACCAACATTGCTACGACCCGTATTCGCACCGACAC | -2.45 ± 0.51 |
| ACATTTGTTGATACAACCATAAAATGATAATTAGTGGGTATTTAACTATTAATTCAGTGGGTATTTAACTATAACGCTCTGATCATAGTCAGACCAACATTGCTACGACCCGTATTCGCACCGACAC | -2.37 ± 0.12 |
